Source: a protein production outcome set (Wang et al. 2014)

Assay: label from the status in PepcDB records

Sequence	protein production
MKKVKIFSIVLPLIYTSFMLYVTYKVYNGLRYRSLDLGIFTQSLYSLSEGKLFYNTVEFQLYEVHTHFGVHFQPILFLLTPLFLIKRDAYTLIIIQTLALGTSVYLAYKLAVKELGEKKGFALAILYSCNSSLISINVFEFHPVSLAVPLFLLAYKFLREESPLFYVISTLILLTKEDAFLGVLSITAWKILKEGLSVETLKKNKKIILFTILTLLYGIFTIKVVIPKFGGEYIYSNLYMEPRLDRRKLTYFLLFNLTFALLPLLNFFAILSLLPPWLECLLASRESQTMFGFHYPYMLVPLSFVISLDVAKKLDWKILRNLAILGVISSLITLPITNHLPKEQNPLVYPTVITPIPGKEASWEAIKITRELEGPIYTQPEFYPALATRLDVYVYPKNVKPKIILVNLNTYYGRRALERIKAFRVNLSEYKKVFEKDGVLIMVRKD	failed
MKKWFPALLFSLCVSGESSAWNNIVFYSLGDVNSYQGGNVVITQRPQFITSWRPGIATVTWNQCNGPEFADGFWAYYREYIAWVVFPKKVMTQNGYPLFIEVHNKGSWSEENTGDNDSYFFLKGYKWDERAFDAGNLCQKPGEITRLTEKFDDIIFKVALPADLPLGDYSVKIPYTSGMQRHFASYLGARFKIPYNVAKTLPRENEMLFLFKNIGGCRPSAQSLEIKHGDLSINSANNHYAAQTLSVSCDVPANIRFMLLRNTTPTYSHGKKFSVGLGHGWDSIVSVNGVDTGETTMRWYKAGTQNLTIGSRLYGESSKIQPGVLSGSATLLMILP	not failed
MKLAMKLRTRLFLSISALITVALLGLLLGLVSVMQMARTQESLIQHNFAILDLGLKLRQNLGDQLVLMTGATRNPPELEKIQRQFEELLEEASAQDTQEDVRNGLEGTWVDYRRFIDALKQFGTDPRGIRGNPQLSESFDSLRNGLLNVHRKALENISSAEINSRDRALWIAGLLGLVGLAVLCIGFVTAHGIARRFGAPIEALAKAADRIGEGDYEVTLPISSAAEMNLLTRRFGIMAEALRQHQATNVDELLAGQQRLQAVLDSIDDGLLMIDRQGHLEHLNPVAQRQLGWDESRLGQSLGEALSRPELDEQLHLVLRGGTLERAPEDLAIDIDGESRLLTYSMTPVSHTKGHILGAVMVLHDVTEQRAFERVRSEFVLRASHELRTPVTGMHMAFGLLQERLHFAPESREADLLNTVTEEMQRLMQLINDLLNFSRYQNGLQKLKLAPCSIETLLEEARARYEGQAQEQEIVLMLDIQEPMPRLHADQSQLERVLDNLLDNALRHTPPNGLIRLQARRHGERAIISVEDNGEGIAYGQQGRIFEPFVQVGRKKGGAGLGLALCKEIVQLHGGRMGVYSRPGQGTQFYMALLL	failed
MKLATKKNGTRDGLLMVVSKDLTRCVPATEVFHPRNLAPTMQVALDNWEAVAPQLEEIYTALNNGTVAGFEEFEAHYCESPLPRAYQWADGSAYVNHVELVRKARGAEMPESFWTDPLMYQGGSDAFIGPCDNIEFASDEWGIDFEGEVAVVTGDVPMGASIAEAQESIRLIMLVNDVSLRGLIPAELAKGFGFFQSKPSSAFSPVAVTPDELGDEWYENKVHLPLVSTYNHKPFGRPNAGVDMTFDFADLIVHATKTRPLSAGAIIGSGTVSNKQGTDHGTSIEEGGVGYSCIAEVRMIETIRDGKPTTNFMSFGDSIKLEMFDVEGNTIFGAIDQQVSQYLKH	failed
MKLDDLNLFRQVVENGSYTAASRKTLIPVATITRRIQALEDSLDIRLLNRHARKLSLTEAGQKFYDECAPILATLVNTSEYLGEECRGAAGKLKIAAPSNLTKRMIQPILNKFMLLYPDISINLTMSNQPEQLDPTDWDIIFRVGKQRDSSLIARQIGSLEDILVASPSYLEKNSEPTHAQELHKHSLLKGNPLMRWRLTNKDGESVTITDAGRFEASELNVIRMACSNGLGITLMPDIMISQYLEEGSLIRVLSDWSANPRDIYMIYNYKDHQPEKVRLFIDFVSNHIPD	failed
MKLELGNIFIKNVEFGEKTEVKDGVLYISSEEIEKIVLEDERIVSVNVELARPGESIRIAPVKDVIEPRVKIGDESKIFPGIINKVKTVGSGRTHVLLGACVVTCGNIVGFQEGVIDMSGPTAKYTPFSKTNNICIVIKAKDGIDTHDYEEAARIAGLKIGAYVGEAGREVEPDEVIVYETKPLLKQVKEYPDLPTVAYVHMLQSQGLLHDTYYYGVDAKQIVPTFMYPTEIMDGAIISGNCVAPCDKVTTFHHLNNPVIHDLYKRHGKDLNFIGVILTNENVFLVDKERSSDMVAKLIEFLGVDGVLVTEEGYGNPDTDLMMNCRKCSEVGANVVLITDEFPGKDGKSQSIADATKEADAVVSCGQGNLVVHFPAMEKIIGTLDYVEMMIGGYKGCLNEDGSMDAELQIIIASTIANGYNHLTARYY	failed
MKLERKNSGIIFLIFGVVFVLNALNPVMELLYIKAKGEIAEAKIVAYDFIQRSSRSGRGSSYKYIPIIEFFDGKEIVQVPVTMNSLNEELDIIGLDVKVSYLKNTPSKVIIDDKLFWLYEISNSLVVVGSFLLMVMLSQMSVETYRGRELTFNVPTKNKIIFLISGLPGVIGTFLSFYYGFITLKYNGLGFTSGTLILSLLIIGVYLLGIVNFLKIKNNYWG	failed
MKLIAVLNLLNQLSNKNSLEEYLNGVIDFLSGWTGCENIGIRVLREAGLAPYVVHRGFDKDFIASESCISVEGDECVCLRVLKQQFKSEDQDHISAAGTYYAPNFYRYVEELREDQLLNFRGLCAHKQFKSLAVIPLLHQGKVVGAIHIADIKDGVFSEEDIHFIETIRPLVAEAIYRHNLEKALEHHHHHH	failed
MKLIVVTTPTFFVEEDKIITALFEEGLDILHLRKPETPAMYSERLLTLIPEKYHRRIVTHEHFYLKEEFNLMGIHLNARNPSEPHDYAGHVSCSCHSVEEVKNRKHFYDYVFMSPIYDSISKVNYYSTYTAEELREAQKAKIIDSKVMALGGINEDNLLEIKDFGFGGAVVLGDLWNKFDACLDQNYLAVIEHFKKLKKLADLEHHHHHH	not failed
MKLKRKILALLMAALLAVSLAGCGQTSQAPANPPAAPEAGTPTERTVTDMAGRTVTLPAEVKTVGTFGSIGVLNAFVETLSAGERLANEGSPSFVKSPTWEKYQYQFTPHIKNLKPFQGADSELLMENILAAKPDVCLTMSADLTEQLEKQGLNVVQLSWTKTEDVKECITLLGEVLNQQEVAADYLKYFDDMLAKAADLTKDIKDADKKTVVYGNVSKFSQPHVIAEWWIDKAGGISVTSEAMTKANKESLTYTLEDLLKWNPDVMFVASAAEKKEVLADARLGEITAVKNGAIYIVPRIAHVWGNRTTEQPLTIMWAMNKLYPEIVTDSQLAEDISYFYSHFFKYDFNADQLKEIMGK	failed
MKLKTEPLSNEKNFSKVKKALSSIPQVRDQKFEEETNTVTIKVVCCSPEKVMDKLCSKGRGAIKLIETIDPAKHVAQKPKEPEKPKEAEKPKEPEKPKPAAAPAQGDPSSQRVTHGYNPPPMMGHPVPWSDGPNYGWSRPNGYDERPIYNSYGGWQPPPSQYGGRSHYEEEQPSCSIM	failed
MKLLLIGYGNVGKAFRRLLHEKKDNYPILQGVEIAGIITRQGLMVGDKENFSPDKQLTVLEAIDYINPDVIVDMSVPNYKDGEPSVSAYIKALSRKIHVITVNKAPLALKFREIFEVAEKTGAKIGFQGTVMSGTPSINLFRIQPVAEVSRIRGILNGTTNYILTRIYEGLSFNEALKEAKEKGYAEEDPTLDLNGFDAAAKLTILSNFIMNRSLKLGDFKFKGITEITNEEIRRAKSEGKKIKLIAYADNYVVQVSPQIIGPQDPLYYIDGVENALEIQNEIQRIIIRGPGAGPINAAYGALSDLVLLLEGCL	failed
MKLLSQLLLFTSLTFPLSSFAALGEHPIILIHGFQAGQLQTKPNHDAVVADGKNYWQDYWLAKADDRIDWPSQERVAGKISTDYIWPKLQELSKNNTCKNGCILVTHSTGDLVARHLLDNQENW	failed
MKLNVKMLSVTLGLFTSHAFAHTVYENARIYTVNDQQPTASVLVVEQGKIIYVGGNDGAKQFKATAAELFDLEGKTVLPGFIESHAHPATVAVMQAGDFVYVDGAASLTQILNQLKDYLAAHPKANYLLAQGFNVASLGLPQGALPTAADLDTVSTSIPIVVYDSGMHAGWANSAALKIAHVDANTPDPISGKHYFERDNKGNPTGFMHESAMHNVVDAQQFNTVENVAEQLKPILNTYHSLGFTAITDVGDTFSTTTAAIARLNDQGKLKVYYQRGYFYDAAKSTEQNIASLKALREKYNRGNLSMNLYKLFMDGTIEMDSGAMFKPYPNGNIVEPFLSQKQINDNVAAALKAGFSVHVHAIGDKAQQSILDAFEASKNINPHLARVIAHNQVFEPQGVQKFAAMKDNLFLQTTPNWTVLNEKDETKTKIGSDAYNHQYLLGQVVREGVAVTFGSDYPANTFDAVNPFSQMYHAIKRGQPNAGYLPPTDAAMTLDQSLRAYTINGAKQLGISDITGSLEKGKNADFIIVDTDIGSVDLEKLKNTNVLATYFKGEKVY	failed
